Results reported in patent publication US20220306744A1 (CRESCENDO BIOLOGICS, published 2022).
Numbering of substitutions follows the chain as printed.

B1: 1.48b (VHH)
VHH: QVQLVESGGGLVKPGGSLRLSCAASGFTFSDSSMTWMRQAPGKGLEWVSYISSGGGVKFYADSVKGRFTISRDNAKNSLYLQMNSLRADDTAVYYCAREAPLRLGESPHDAFDIWGQGTMVTVSS
B2: 1.49b (VHH)
VHH: B1 VHH with T35S, S53T
B3: 1.50b (VHH)
VHH: B1 VHH with S32N, G56T, V57I
B4: 1.51b (VHH)
VHH: B1 VHH with G56A, A61T
B5: 1.52b (VHH)
VHH: B1 VHH with S32N, F59Y
B6: 1.53b (VHH)
VHH: B1 VHH with S32N, G56S
B7: 1.54b (VHH)
VHH: B1 VHH with S32D, K58I
B8: 1.55b (VHH)
VHH: B1 VHH with S32N, W115S
B9: 1.56b (VHH)
VHH: B1 VHH with S32N, G56A, W115L
B10: 1.58b (VHH)
VHH: B1 VHH with S32N, S33T, S53T
B11: 1.59b (VHH)
VHH: B1 VHH with S32N, T35S, G56S
B12: 1.60b (VHH)
VHH: B1 VHH with S32N, S53T, F59Y
B13: 1.62b (VHH)
VHH: B1 VHH with G56A, A61T, W115S
B14: 1.63b (VHH)
VHH: B1 VHH with Q1E, A61T, W115S
B15: 1.64b (VHH)
VHH: B1 VHH with Q1E, W115S
notes: also called Humabody 1.64b
B16: 1.65b (VHH)
VHH: B1 VHH with W115S
B17: 1.66b (VHH)
VHH: B1 VHH with A61T, N84D, I114T, W115S
B18: 1.67b (VHH)
VHH: B1 VHH with D31G, K58I, W115S
B19: 1.68b (VHH)
VHH: B1 VHH with S30G, S32N, K58I, W115S, Q117R, M120T
B20: 1.69b (VHH)
VHH: B1 VHH with S32N, T35S, K58I, W115S
B21: 1.70b (VHH)
VHH: B1 VHH with S30G, G56A, A61T, W115S
B22: 1.71b (VHH)
VHH: B1 VHH with S30G, D31G, A61T, W115S
B23: 1.72b (VHH)
VHH: B1 VHH with T35S, K58I, W115S
B24: 1.73b (VHH)
VHH: B1 VHH with S25T, S53A, K58R, A61T, W115S
B25: 1.74b (VHH)
VHH: B1 VHH with Q1E, M37I, A61T, W115S
B26: 1.75b (VHH)
VHH: B1 VHH with Q1E, M37I, A61T, D89E, W115S
B27: 1.76b (VHH)
VHH: B1 VHH with Q1E, M37I, W115S
B28: 1.77b (VHH)
VHH: B1 VHH with Q1E, A61T, D89E, W115S
notes: also called Humabody 1.77b
B29: 1.78b (VHH)
VHH: B1 VHH with Q1E, M37I, D89E, W115S
B30: 1.79b (VHH)
VHH: B1 VHH with Q1E, M37K, D89E, W115S
B31: 1.80b (VHH)
VHH: B1 VHH with Q1E, D89E, W115S
B32: 1.81b (VHH)
VHH: B1 VHH with Q1E, M37V, D89E, W115S
B33: 1.82b (VHH)
VHH: B1 VHH with Q1E, S32T, A61T, D89E, W115S
B34: 1.83b (VHH)
VHH: B1 VHH with Q1E, S32E, M37F, A61T, D89E, W115S
B35: 1.84b (VHH)
VHH: B1 VHH with Q1E, S32E, A61T, D89E, W115S
B36: 1.85b (VHH)
VHH: B1 VHH with Q1E, S32Y, A61T, D89E, W115S
B37: 1.86b (VHH)
VHH: B1 VHH with Q1E, S32A, A61T, D89E, W115S
B38: 1.87b (VHH)
VHH: B1 VHH with Q1E, S32K, A61T, D89E, W115S
B39: 1.88b (VHH)
VHH: B1 VHH with Q1E, S32R, A61T, D89E, W115S
B40: 1.89b (VHH)
VHH: B1 VHH with Q1E, S32Y, D89E, W115S
B41: 1.90b (VHH)
VHH: B1 VHH with Q1E, S32V, D89E, W115S
B42: 1.91b (VHH)
VHH: B1 VHH with Q1E, S32Q, D89E, W115S
B43: 1.92b (VHH)
VHH: B1 VHH with Q1E, S32E, D89E, W115S
notes: also called Humabody 1.92b
B44: 1.93b (VHH)
VHH: B1 VHH with Q1E, S32A, D89E, W115S
B45: 1.94b (VHH)
VHH: B1 VHH with Q1E, S32W, D89E, W115S
B46: 1.95b (VHH)
VHH: B1 VHH with Q1E, S32G, D89E, W115S
B47: 1.96b (VHH)
VHH: B1 VHH with Q1E, S32T, D89E, W115S
B48: 1.97b (VHH)
VHH: B1 VHH with Q1E, S32I, D89E, W115S
B49: 1.98b (VHH)
VHH: B1 VHH with Q1E, S32K, D89E, W115S
B50: 1.99b (VHH)
VHH: B1 VHH with Q1E, S32R, D89E, W115S
B51: 1.100b (VHH)
VHH: B1 VHH with Q1E, S32L, D89E, W115S
B52: 1.101b (VHH)
VHH: B1 VHH with Q1E, S32F, D89E, W115S
B53: 1.102b (VHH)
VHH: B1 VHH with Q1E, S32E, M34V, A61T, D89E, W115S
B54: 1.103b (VHH)
VHH: B1 VHH with Q1E, S32E, M34Q, A61T, D89E, W115S
B55: 1.104b (VHH)
VHH: B1 VHH with Q1E, S32E, M34F, A61T, D89E, W115S
B56: 1.105b (VHH)
VHH: B1 VHH with Q1E, S32E, M34L, A61T, D89E, W115S
B57: 1.106b (VHH)
VHH: B1 VHH with Q1E, S32E, M34K, A61T, D89E, W115S
B58: 1.107b (VHH)
VHH: B1 VHH with Q1E, S32E, M34Y, A61T, D89E, W115S
B59: 1.108b (VHH)
VHH: B1 VHH with Q1E, S32E, M34A, D89E, W115S

molecular target: T1, human PD-1 expressed on cells (CHO TREX human PD1 cell line, full-length human PD-1 sequence) (human, UniProt Q15116 21-288); assay: worded summary of the screens
T1 construct: Also used for human PD-1 on Jurkat reporter cells, on PathHunter cells and on PHA-stimulated human CD4+ T cells; also called CHO human PD1 cells; CHO human PD-1 cells
T1 sequence (Q15116 21-288): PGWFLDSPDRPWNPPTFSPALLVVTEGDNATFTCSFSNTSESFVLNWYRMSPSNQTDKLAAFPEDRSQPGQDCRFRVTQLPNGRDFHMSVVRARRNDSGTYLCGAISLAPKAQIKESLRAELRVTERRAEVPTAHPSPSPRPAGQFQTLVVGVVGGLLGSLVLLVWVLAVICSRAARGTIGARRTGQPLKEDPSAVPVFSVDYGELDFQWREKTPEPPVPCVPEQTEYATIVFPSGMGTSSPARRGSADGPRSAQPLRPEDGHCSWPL

Q: Does B1 bind?
A: binds

Q: Does B2 bind?
A: binds

Q: Does B3 bind?
A: binds

Q: Does B4 bind?
A: binds

Q: Does B5 bind?
A: binds

Q: Does B6 bind?
A: binds

Q: Does B7 bind?
A: binds

Q: Does B8 bind?
A: binds

Q: Does B9 bind?
A: binds

Q: Does B10 bind?
A: binds

Q: Does B11 bind?
A: binds

Q: Does B12 bind?
A: binds

Q: Does B13 bind?
A: binds

Q: Does B14 bind?
A: binds

Q: Does B15 bind?
A: binds

Q: Does B16 bind?
A: binds

Q: Does B17 bind?
A: binds

Q: Does B18 bind?
A: binds

Q: Does B19 bind?
A: binds

Q: Does B20 bind?
A: binds

Q: Does B21 bind?
A: binds

Q: Does B22 bind?
A: binds

Q: Does B23 bind?
A: binds

Q: Does B24 bind?
A: binds

Q: Does B25 bind?
A: binds

Q: Does B26 bind?
A: binds

Q: Does B27 bind?
A: binds

Q: Does B28 bind?
A: binds

Q: Does B29 bind?
A: binds

Q: Does B30 bind?
A: binds

Q: Does B31 bind?
A: binds

Q: Does B32 bind?
A: binds

Q: Does B33 bind?
A: binds

Q: Does B34 bind?
A: binds

Q: Does B35 bind?
A: binds

Q: Does B36 bind?
A: binds

Q: Does B37 bind?
A: binds

Q: Does B38 bind?
A: binds

Q: Does B39 bind?
A: binds

Q: Does B40 bind?
A: binds

Q: Does B41 bind?
A: binds

Q: Does B42 bind?
A: binds

Q: Does B43 bind?
A: binds

Q: Does B44 bind?
A: binds

Q: Does B45 bind?
A: binds

Q: Does B46 bind?
A: binds

Q: Does B47 bind?
A: binds

Q: Does B48 bind?
A: binds

Q: Does B49 bind?
A: binds

Q: Does B50 bind?
A: binds

Q: Does B51 bind?
A: binds

Q: Does B52 bind?
A: binds

Q: Does B53 bind?
A: binds

Q: Does B54 bind?
A: binds

Q: Does B55 bind?
A: binds

Q: Does B56 bind?
A: binds

Q: Does B57 bind?
A: binds

Q: Does B58 bind?
A: binds

Q: Does B59 bind?
A: binds
